This note sets out measurements from patent US20140087995A1 (published 2014).

Numbered stars: 1 amine (or outer) side, 2 acyl side, 3 side chain; on linkers, the order of the positions; unused ones are H or OH. Bridge positions count the residues as written; N and C are the ends. Side chains are listed from the residue outwards. Ends that are not written are not given here. * marks the point of attachment. C20 diacid = O=C(O)CCCCCCCCCCCCCCCCCCC(=O)*; γGlu = O=C(O)[C@H](CCC(=O)[*:2])N[*:1]

Sequences and labels used below:
T1: human amylin receptor (amylin 3(a) receptor: human calcitonin receptor co-expressed with RAMP-3) (human, UniProt P30988 25-474; O60896 24-148, limits assumed)
T1 sequence (looked up) 1: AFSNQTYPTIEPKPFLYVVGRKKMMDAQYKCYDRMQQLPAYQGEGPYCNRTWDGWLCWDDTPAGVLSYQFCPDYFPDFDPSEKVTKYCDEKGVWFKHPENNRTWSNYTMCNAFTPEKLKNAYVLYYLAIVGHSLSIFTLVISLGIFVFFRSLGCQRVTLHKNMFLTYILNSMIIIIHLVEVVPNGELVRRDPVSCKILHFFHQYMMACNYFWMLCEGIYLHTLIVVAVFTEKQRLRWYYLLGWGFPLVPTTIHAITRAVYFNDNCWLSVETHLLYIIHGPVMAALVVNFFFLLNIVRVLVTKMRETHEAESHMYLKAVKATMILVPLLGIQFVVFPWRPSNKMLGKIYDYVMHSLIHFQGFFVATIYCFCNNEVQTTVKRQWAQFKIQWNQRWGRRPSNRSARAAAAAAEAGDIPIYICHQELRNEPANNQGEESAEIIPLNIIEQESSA
T1 sequence (looked up) 2: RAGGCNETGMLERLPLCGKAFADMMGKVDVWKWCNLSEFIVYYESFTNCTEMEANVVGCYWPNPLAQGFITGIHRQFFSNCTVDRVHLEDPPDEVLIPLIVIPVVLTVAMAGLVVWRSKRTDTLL

T2: human calcitonin receptor (human, UniProt P30988 25-474)
T2 sequence (looked up): T1 sequence (looked up) 1

B1: N^ε1-[(4S)-4-carboxy-4-(19-carboxynonadecanoylamino)butanoyl]-[His14,Arg17,Pro21,Pro27,Arg34]-h-amylin (peptide)
peptide: K([γGlu-C20 diacid])CNTATCATQRLAHFLRHSSPNFGAIPSSTNVGRNTY-NH2
modifications: disulfide 2-7; N-terminus assumed
SMILES: CC[C@H](C)[C@H](NC(=O)[C@H](C)NC(=O)CNC(=O)[C@H](Cc1ccccc1)NC(=O)[C@H](CC(N)=O)NC(=O)[C@@H]1CCCN1C(=O)[C@H](CO)NC(=O)[C@H](CO)NC(=O)[C@H](Cc1c[nH]cn1)NC(=O)[C@H](CCCNC(=N)N)NC(=O)[C@H](CC(C)C)NC(=O)[C@H](Cc1ccccc1)NC(=O)[C@H](Cc1c[nH]cn1)NC(=O)[C@H](C)NC(=O)[C@H](CC(C)C)NC(=O)[C@H](CCCNC(=N)N)NC(=O)[C@H](CCC(N)=O)NC(=O)[C@@H](NC(=O)[C@H](C)NC(=O)[C@@H]1CSSC[C@H](NC(=O)[C@@H](N)CCCCNC(=O)CC[C@H](NC(=O)CCCCCCCCCCCCCCCCCCC(=O)O)C(=O)O)C(=O)N[C@@H](CC(N)=O)C(=O)N[C@@H]([C@@H](C)O)C(=O)N[C@@H](C)C(=O)N[C@@H]([C@@H](C)O)C(=O)N1)[C@@H](C)O)C(=O)N1CCC[C@H]1C(=O)N[C@@H](CO)C(=O)N[C@@H](CO)C(=O)N[C@H](C(=O)N[C@@H](CC(N)=O)C(=O)N[C@H](C(=O)NCC(=O)N[C@@H](CCCNC(=N)N)C(=O)N[C@@H](CC(N)=O)C(=O)N[C@H](C(=O)N[C@@H](Cc1ccc(O)cc1)C(N)=O)[C@@H](C)O)C(C)C)[C@@H](C)O
notes: also called compound 85
B2: N^ε1-[(4S)-4-carboxy-4-(19-carboxynonadecanoylamino)butanoyl]-[His14,Arg17,Pro21,Pro27,His35]-h-amylin (peptide)
peptide: K([γGlu-C20 diacid])CNTATCATQRLAHFLRHSSPNFGAIPSSTNVGSHTY-NH2
modifications: disulfide 2-7; N-terminus assumed
SMILES: CC[C@H](C)[C@H](NC(=O)[C@H](C)NC(=O)CNC(=O)[C@H](Cc1ccccc1)NC(=O)[C@H](CC(N)=O)NC(=O)[C@@H]1CCCN1C(=O)[C@H](CO)NC(=O)[C@H](CO)NC(=O)[C@H](Cc1c[nH]cn1)NC(=O)[C@H](CCCNC(=N)N)NC(=O)[C@H](CC(C)C)NC(=O)[C@H](Cc1ccccc1)NC(=O)[C@H](Cc1c[nH]cn1)NC(=O)[C@H](C)NC(=O)[C@H](CC(C)C)NC(=O)[C@H](CCCNC(=N)N)NC(=O)[C@H](CCC(N)=O)NC(=O)[C@@H](NC(=O)[C@H](C)NC(=O)[C@@H]1CSSC[C@H](NC(=O)[C@@H](N)CCCCNC(=O)CC[C@H](NC(=O)CCCCCCCCCCCCCCCCCCC(=O)O)C(=O)O)C(=O)N[C@@H](CC(N)=O)C(=O)N[C@@H]([C@@H](C)O)C(=O)N[C@@H](C)C(=O)N[C@@H]([C@@H](C)O)C(=O)N1)[C@@H](C)O)C(=O)N1CCC[C@H]1C(=O)N[C@@H](CO)C(=O)N[C@@H](CO)C(=O)N[C@H](C(=O)N[C@@H](CC(N)=O)C(=O)N[C@H](C(=O)NCC(=O)N[C@@H](CO)C(=O)N[C@@H](Cc1c[nH]cn1)C(=O)N[C@H](C(=O)N[C@@H](Cc1ccc(O)cc1)C(N)=O)[C@@H](C)O)C(C)C)[C@@H](C)O
notes: also called compound 66
B3: N^ε1-[(4S)-4-carboxy-4-(19-carboxynonadecanoylamino)butanoyl]-[His14,Arg17,Pro21,Pro27,His34]-h-amylin (peptide)
peptide: K([γGlu-C20 diacid])CNTATCATQRLAHFLRHSSPNFGAIPSSTNVGHNTY-NH2
modifications: disulfide 2-7; N-terminus assumed
SMILES: CC[C@H](C)[C@H](NC(=O)[C@H](C)NC(=O)CNC(=O)[C@H](Cc1ccccc1)NC(=O)[C@H](CC(N)=O)NC(=O)[C@@H]1CCCN1C(=O)[C@H](CO)NC(=O)[C@H](CO)NC(=O)[C@H](Cc1c[nH]cn1)NC(=O)[C@H](CCCNC(=N)N)NC(=O)[C@H](CC(C)C)NC(=O)[C@H](Cc1ccccc1)NC(=O)[C@H](Cc1c[nH]cn1)NC(=O)[C@H](C)NC(=O)[C@H](CC(C)C)NC(=O)[C@H](CCCNC(=N)N)NC(=O)[C@H](CCC(N)=O)NC(=O)[C@@H](NC(=O)[C@H](C)NC(=O)[C@@H]1CSSC[C@H](NC(=O)[C@@H](N)CCCCNC(=O)CC[C@H](NC(=O)CCCCCCCCCCCCCCCCCCC(=O)O)C(=O)O)C(=O)N[C@@H](CC(N)=O)C(=O)N[C@@H]([C@@H](C)O)C(=O)N[C@@H](C)C(=O)N[C@@H]([C@@H](C)O)C(=O)N1)[C@@H](C)O)C(=O)N1CCC[C@H]1C(=O)N[C@@H](CO)C(=O)N[C@@H](CO)C(=O)N[C@H](C(=O)N[C@@H](CC(N)=O)C(=O)N[C@H](C(=O)NCC(=O)N[C@@H](Cc1c[nH]cn1)C(=O)N[C@@H](CC(N)=O)C(=O)N[C@H](C(=O)N[C@@H](Cc1ccc(O)cc1)C(N)=O)[C@@H](C)O)C(C)C)[C@@H](C)O
notes: also called compound 81
B4: N^ε1-[(4S)-4-carboxy-4-(19-carboxynonadecanoylamino)butanoyl]-[His14,Arg17,Pro21,Pro27,Pro31]-h-amylin (peptide)
peptide: K([γGlu-C20 diacid])CNTATCATQRLAHFLRHSSPNFGAIPSSTPVGSNTY-NH2
modifications: disulfide 2-7; N-terminus assumed
SMILES: CC[C@H](C)[C@H](NC(=O)[C@H](C)NC(=O)CNC(=O)[C@H](Cc1ccccc1)NC(=O)[C@H](CC(N)=O)NC(=O)[C@@H]1CCCN1C(=O)[C@H](CO)NC(=O)[C@H](CO)NC(=O)[C@H](Cc1c[nH]cn1)NC(=O)[C@H](CCCNC(=N)N)NC(=O)[C@H](CC(C)C)NC(=O)[C@H](Cc1ccccc1)NC(=O)[C@H](Cc1c[nH]cn1)NC(=O)[C@H](C)NC(=O)[C@H](CC(C)C)NC(=O)[C@H](CCCNC(=N)N)NC(=O)[C@H](CCC(N)=O)NC(=O)[C@@H](NC(=O)[C@H](C)NC(=O)[C@@H]1CSSC[C@H](NC(=O)[C@@H](N)CCCCNC(=O)CC[C@H](NC(=O)CCCCCCCCCCCCCCCCCCC(=O)O)C(=O)O)C(=O)N[C@@H](CC(N)=O)C(=O)N[C@@H]([C@@H](C)O)C(=O)N[C@@H](C)C(=O)N[C@@H]([C@@H](C)O)C(=O)N1)[C@@H](C)O)C(=O)N1CCC[C@H]1C(=O)N[C@@H](CO)C(=O)N[C@@H](CO)C(=O)N[C@H](C(=O)N1CCC[C@H]1C(=O)N[C@H](C(=O)NCC(=O)N[C@@H](CO)C(=O)N[C@@H](CC(N)=O)C(=O)N[C@H](C(=O)N[C@@H](Cc1ccc(O)cc1)C(N)=O)[C@@H](C)O)C(C)C)[C@@H](C)O
notes: also called compound 62

The target of one experiment is T1, human amylin receptor (amylin 3(a) …). Kind of experiment: cell-based or functional assay.
With B1, the “Ratio hCT/hAmylin funct.” value came to 26.6 and the “hAmylin-R funct. EC50” value was 0.146 nM.

For the molecule B2, the “hAmylin-R funct. EC50” value came to 0.027 nM.

With B3, the “hAmylin-R funct. EC50” value amounted to 0.13 nM.

With B4, the “hAmylin-R funct. EC50” value stood at 0.044 nM.

A further experiment concerns the target T2, human calcitonin receptor. Briefly: cell-based or functional assay.
Regarding B1, the “hCTR funct. EC50” value was 3.88 nM.

Turning to B2, the “hCTR funct. EC50” value is 0.542 nM.

As for B3, the “hCTR funct. EC50” value amounted to 1.73 nM.

As for B4, the “hCTR funct. EC50” value stood at 0.539 nM.
